We go through one molecule from patent CN112010973A (SHANDONG BOAN BIOTECHNOLOGY CO LTD, dated 2020).

This test concerns the target T1, 4-1BB蛋白(义翘神州，10041-H08H) (human, UniProt Q07011 24-186).
T1 construct: bought reagent; also called 4-1BB-His蛋白; 4-1BB protein
The test can be described thus: SPR, BIAcore X100; antibody captured by anti-human IgG Fc on CM5, 4-1BB protein as analyte, 1:1 model.

B1: Urelumab (antibody, human IgG4 S228P, kappa, V domains shown)
VH: QVQLQQWGAGLLKPSETLSLTCAVYGGSFSGYYWSWIRQSPEKGLEWIGEINHGGYVTYNPSLESRVTISVDTSKNQFSLKLSSVTAADTAVYYCARDYGPGNYDWYFDLWGRGTLVTVSS
VL: EIVLTQSPATLSLSPGERATLSCRASQSVSSYLAWYQQKPGQAPRLLIYDASNRATGIPARFSGSGSGTDFTLTISSLEPEDFAVYYCQQRSNWPPALTFGGGTKVEIKR
notes: Second positive control antibody, expressed in HEK293 in the same way as Utomilumab
B1 yielded a Kd of 4.87 nM, a koff of 0.00251 s⁻¹ and a kon of 516000 M⁻¹ s⁻¹.
